Assay: Specific biological activity of the insulin substance used (I.U./mg)
Conditions: as stated in the composition

Substance	specific activity [I.U./mg]
human insulin-B30-choline ester [human insulin-(B30)-choline ester]	28.0
human insulin--Arg^B31 -Lys--^B32 --OCH3 [Human insulin-Arg^B31 -Lys^B31 -OCH3]	27.0
human insulin--Arg^B31 --Arg^B32 --OH	27.0
human insulin--Arg^B31 --OH [Human insulin-Arg^B31 -OH]	27.5
Porcine insulin--Arg^B31 --Arg^B32 --OH [Insulin-Arg^B31 -Arg^B32 -OH from pigs]	27.0
